The values that follow come from patent publication US20100076060, “Aptamers as agonists” (DUKE UNIVERSITY, published 2010).

For this data set, the target named is T1, OX40 (CD134) (Mus musculus, UniProt P47741 P47741:20-211).
T1 sequence: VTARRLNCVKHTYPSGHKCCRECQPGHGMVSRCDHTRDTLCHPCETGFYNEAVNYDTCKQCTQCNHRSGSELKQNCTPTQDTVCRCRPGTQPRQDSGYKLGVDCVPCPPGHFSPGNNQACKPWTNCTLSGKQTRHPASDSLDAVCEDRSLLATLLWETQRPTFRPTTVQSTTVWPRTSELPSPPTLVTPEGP
Put plainly: filter; 20 mM Hepes pH 7.4, 150 mM NaCl, 2 mM CaCl2; Kd not given. The following applies: tags: human IgG Fc fusion; chain copies: 2; label: 5' 32P. On the procedure:
Eleven rounds of selection were performed with increasing stringency throughout the selection process by increasing the RNA: OX40 protein ratio in the selection reaction. Aptamers from rounds 9 and 11 DNA were cloned into a plasmid vector, and single colonies were sequenced and amplified by low cycle PCR amplification following by in vitro transcription. Binding constants for the clones were determined using filter-binding assays in a buffer composed of 20 mM Hepes pH 7.4, 150 mM NaCl, 2 mM CaCl2. To determine the affinities of monomeric aptamers (e.g., which may be expressed as Kd or dissociation constant), serial dilutions of murine OX40 IgG Fc fusion protein, human IgG1, or protein G were incubated with monomeric 5′ ³²P radiolabeled aptamers at 2000 cpm/μL. The mixture was passed over a stack of membranes consisting of a nitrocellulose membrane and nylon membrane through application of a vacuum. The membranes were exposed to a phosphoimager screen, scanned and quantitated using a phosphoimager. Finally, differential fractions of RNA bound were calculated and graphed using commercially available software, and affinity was then expressed as Kd. The predicted secondary structure of the resultant nucleic acid aptamers was determined by utilizing the algorithm m-fold using default settings for folding parameters. Illustrative examples of the nucleic acid aptamers isolated from the aforementioned selections against OX40 are shown in Table 2; wherein nucleic acid sequences comprising SEQ ID NOs: […] represent the variable regions from clones with binding specificity to OX40; and a nucleic acid sequence comprising SEQ ID:87 represents the RNA library constant regions, with a constant region (e.g., nucleic acid bases in positions 1-41 of […]) flanking the 5′ end of the variable regions, a constant region (e.g., nucleic acid bases in positions 82-106 of SEQ ID NO:87) flanking the 3′end of the variable regions, and the variable regions being designated by N(40) in Table 2 (nucleic acid bases in positions 42-81 of SEQ ID NO:87). It is understood by those skilled in the art that the variable regions may be flanked by constant regions other than those comprising the constant regions depicted in SEQ ID NO: 87, while still retaining binding activity for OX40.

B1: OX40 aptamer SEQ 86 (ssRNA)
RNA: GGGAGGACGAUGCGGCCGUCAACCAAUCUCUCGCUUCACACGGCCAUGCCUCCAUCAGACGACUCGCUGAGGAUCCGAGA
modifications: 2'-F pyrimidines, 2'-OH purines
Turning to B1, the binding result was “binds”.

B2: OX40 aptamer SEQ 77 (ssRNA)
RNA: GGGAGGACGAUGCGGCAGUCUGCAUCGUAGGAAUCGCCACCGUAUACUUUCCCACCAGACGACUCGCUGAGGAUCCGAGA
modifications: 2'-F pyrimidines, 2'-OH purines
Turning to B2, the binding result is given as “binds”.

B3: OX40 aptamer SEQ 82 (ssRNA)
RNA: GGGAGGACGAUGCGGCUUUUGAAUGCUCCCUUCACUCCAAGCGGCAGCCUAUCGUCAGACGACUCGCUGAGGAUCCGAGA
modifications: 2'-F pyrimidines, 2'-OH purines
For the molecule B3, the binding result is listed as “binds”.

B4: OX40 aptamer SEQ 81 (ssRNA)
RNA: GGGAGGACGAUGCGGAUACCAGCGAAUAACUCGCUGAGGAACCCGACUCACAAACAGACGACUCGCUGAGGAUCCGAGA
modifications: 2'-F pyrimidines, 2'-OH purines
Regarding B4, the binding result is given as “binds”.

B5: OX40 aptamer SEQ 84 (ssRNA)
RNA: GGGAGGACGAUGCGGCAACCCAUCCAUACCAACAUGGAGCUAAUGUUAGUCAACGCAGACGACUCGCUGAGGAUCCGAGA
modifications: 2'-F pyrimidines, 2'-OH purines
Regarding B5, the binding result is recorded as “binds”.

B6: OX40 aptamer SEQ 80 (ssRNA)
RNA: GGGAGGACGAUGCGGCAAACCAGCUAUUUCCUGAGGUACCCCGGCUCUCCAUGGCAGACGACUCGCUGAGGAUCCGAGA
modifications: 2'-F pyrimidines, 2'-OH purines
Take B6: the binding result is given as “binds”.

B7: OX40 aptamer SEQ 79 (ssRNA)
RNA: GGGAGGACGAUGCGGCUUUAAUCCUCGCACUCAGCGCGCAUCACCCUUGACAUCACAGACGACUCGCUGAGGAUCCGAGA
modifications: 2'-F pyrimidines, 2'-OH purines
Take B7: the binding result is given as “binds”.

B8: OX40 aptamer SEQ 85 (ssRNA)
RNA: GGGAGGACGAUGCGGCACUAACUCCAGCGACUCCAUCGCCAUUCCAACUCUACGCCAGACGACUCGCUGAGGAUCCGAGA
modifications: 2'-F pyrimidines, 2'-OH purines
As to B8, the binding result is recorded as “binds”.

B9: OX40 aptamer SEQ 78 (ssRNA)
RNA: GGGAGGACGAUGCGGAUACCAGGAUCACAUCCUGAGGAACCCCGGCUCCCAACCUCAGACGACUCGCUGAGGAUCCGAGA
modifications: 2'-F pyrimidines, 2'-OH purines
On to B9, for which the binding result is recorded as “binds”.

B10: OX40 aptamer SEQ 83 (ssRNA)
RNA: GGGAGGACGAUGCGGAUACCACCUAGUGUGAGGAACCCCGCUUCCUAGACUGCGCAGACGACUCGCUGAGGAUCCGAGA
modifications: 2'-F pyrimidines, 2'-OH purines
For B10, the binding result was “binds”.
